One block for each binder: values may come before it.
Assays:
[1] = target: soluble mouse PlexinA1 protein (mouse, UniProt P70206 28-1242); assay: BLI (OctetRED384), antibody on Protein G biosensor, mouse PlexinA1 at 260 nM
Method: Note that the L chains of the antibodies derived from the human antibody naive library were not chimerized.
Specifically, the antibodies adjusted to 10 µg/mL by 10× diluted HBS-EP+(GE healthcare, BR-1006-69) were immobilized onto Protein G biosensors (ForteBIO), and human and mouse PlexinA1 adjusted to 260 nM with HBS-EP+ were applied thereto. The Protein G biosensors were regenerated using 10 mmol/L Glycine-HCl, pH 1.5 (GE Healthcare, BR-1003-54). After the measurement, analytical software Data analysis 7.0 (ForteBIO) was used to compute amounts of binding (FIG. 5). […] In FIG. 5, the vertical axis represents amounts of binding to human and mouse PlexinA1.

[2] = target: T1, mouse PlexinA1 recombinant protein expressed on Ba/F3 cells (mouse, UniProt P70206 25-1290); assay: cell ELISA on mouse PlexinA1-expressing Ba/F3 cells against Ba/F3 cells
T1 construct: also called Mouse PlexinA1/BaF3; mouse PlexinA1-expressing cell line
Method: The antibodies obtained above were subjected to cell ELISA by the following procedure. Initially, 384-well plates were prepared, and mouse PlexinA1-expressing Ba/F3 cells and Ba/F3 cells (see Example 11) were each captured onto the bottom of different wells. After washing each well of the plates with PBS, the prepared antibodies were added at 20 μL/well, and the mixture was allowed to stand at room temperature for 1 hour. Then, each well was washed with 0.05% Tween 20-PBS, HRP-labeled anti-rabbit IgG antibody (Betyl, A120-101P) diluted 10000 times with 2% FBS-PBS was added at 20 μL/well, and the mixture was allowed to stand at room temperature for 1 hour. After washing each well of the plates with 0.05% Tween 20-PBS, the substrate solution (ABTS peroxidase substrate system) was dispensed at 20 μL/well to develop color for 1 hour at room temperature. Then, binding of the antibodies to mouse PlexinA1 was confirmed by measuring absorbance at 405 nm using SpectraMax from Molecular Devices, LLC.

Sequence of soluble mouse PlexinA1 protein (P70206 other isoform, or with tags, fused parts or gaps limits assumed): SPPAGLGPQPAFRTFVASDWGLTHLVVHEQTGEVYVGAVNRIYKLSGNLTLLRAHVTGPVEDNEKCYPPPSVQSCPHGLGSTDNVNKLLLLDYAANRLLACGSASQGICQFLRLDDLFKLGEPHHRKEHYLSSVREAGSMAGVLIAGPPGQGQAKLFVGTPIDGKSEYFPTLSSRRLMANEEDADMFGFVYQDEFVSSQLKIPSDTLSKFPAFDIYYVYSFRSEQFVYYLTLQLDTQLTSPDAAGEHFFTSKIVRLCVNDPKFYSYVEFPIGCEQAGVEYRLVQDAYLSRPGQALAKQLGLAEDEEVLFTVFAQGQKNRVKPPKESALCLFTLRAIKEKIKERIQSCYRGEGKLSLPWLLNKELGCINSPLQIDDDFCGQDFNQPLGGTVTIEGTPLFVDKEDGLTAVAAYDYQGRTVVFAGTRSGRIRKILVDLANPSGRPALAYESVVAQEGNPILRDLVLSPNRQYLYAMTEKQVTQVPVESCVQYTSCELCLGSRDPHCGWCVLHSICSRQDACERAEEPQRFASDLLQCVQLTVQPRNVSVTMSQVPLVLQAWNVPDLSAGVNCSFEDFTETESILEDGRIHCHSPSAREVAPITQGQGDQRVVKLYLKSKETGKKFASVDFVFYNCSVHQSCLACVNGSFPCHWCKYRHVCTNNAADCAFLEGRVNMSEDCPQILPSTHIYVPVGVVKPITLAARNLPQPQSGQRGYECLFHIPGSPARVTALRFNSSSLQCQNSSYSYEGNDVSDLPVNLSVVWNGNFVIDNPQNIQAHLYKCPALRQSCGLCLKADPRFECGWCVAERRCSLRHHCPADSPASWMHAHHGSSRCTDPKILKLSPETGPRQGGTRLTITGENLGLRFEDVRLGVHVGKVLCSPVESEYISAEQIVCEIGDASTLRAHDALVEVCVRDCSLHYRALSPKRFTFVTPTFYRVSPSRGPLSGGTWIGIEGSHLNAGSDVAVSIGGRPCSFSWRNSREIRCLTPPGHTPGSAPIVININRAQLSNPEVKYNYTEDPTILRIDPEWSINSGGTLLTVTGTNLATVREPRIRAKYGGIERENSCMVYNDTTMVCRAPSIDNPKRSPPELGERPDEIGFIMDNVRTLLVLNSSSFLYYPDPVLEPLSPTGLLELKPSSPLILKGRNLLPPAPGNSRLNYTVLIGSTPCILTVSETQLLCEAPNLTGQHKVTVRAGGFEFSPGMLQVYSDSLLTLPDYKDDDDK
T1 sequence (P70206 other isoform, or with tags, fused parts or gaps limits assumed): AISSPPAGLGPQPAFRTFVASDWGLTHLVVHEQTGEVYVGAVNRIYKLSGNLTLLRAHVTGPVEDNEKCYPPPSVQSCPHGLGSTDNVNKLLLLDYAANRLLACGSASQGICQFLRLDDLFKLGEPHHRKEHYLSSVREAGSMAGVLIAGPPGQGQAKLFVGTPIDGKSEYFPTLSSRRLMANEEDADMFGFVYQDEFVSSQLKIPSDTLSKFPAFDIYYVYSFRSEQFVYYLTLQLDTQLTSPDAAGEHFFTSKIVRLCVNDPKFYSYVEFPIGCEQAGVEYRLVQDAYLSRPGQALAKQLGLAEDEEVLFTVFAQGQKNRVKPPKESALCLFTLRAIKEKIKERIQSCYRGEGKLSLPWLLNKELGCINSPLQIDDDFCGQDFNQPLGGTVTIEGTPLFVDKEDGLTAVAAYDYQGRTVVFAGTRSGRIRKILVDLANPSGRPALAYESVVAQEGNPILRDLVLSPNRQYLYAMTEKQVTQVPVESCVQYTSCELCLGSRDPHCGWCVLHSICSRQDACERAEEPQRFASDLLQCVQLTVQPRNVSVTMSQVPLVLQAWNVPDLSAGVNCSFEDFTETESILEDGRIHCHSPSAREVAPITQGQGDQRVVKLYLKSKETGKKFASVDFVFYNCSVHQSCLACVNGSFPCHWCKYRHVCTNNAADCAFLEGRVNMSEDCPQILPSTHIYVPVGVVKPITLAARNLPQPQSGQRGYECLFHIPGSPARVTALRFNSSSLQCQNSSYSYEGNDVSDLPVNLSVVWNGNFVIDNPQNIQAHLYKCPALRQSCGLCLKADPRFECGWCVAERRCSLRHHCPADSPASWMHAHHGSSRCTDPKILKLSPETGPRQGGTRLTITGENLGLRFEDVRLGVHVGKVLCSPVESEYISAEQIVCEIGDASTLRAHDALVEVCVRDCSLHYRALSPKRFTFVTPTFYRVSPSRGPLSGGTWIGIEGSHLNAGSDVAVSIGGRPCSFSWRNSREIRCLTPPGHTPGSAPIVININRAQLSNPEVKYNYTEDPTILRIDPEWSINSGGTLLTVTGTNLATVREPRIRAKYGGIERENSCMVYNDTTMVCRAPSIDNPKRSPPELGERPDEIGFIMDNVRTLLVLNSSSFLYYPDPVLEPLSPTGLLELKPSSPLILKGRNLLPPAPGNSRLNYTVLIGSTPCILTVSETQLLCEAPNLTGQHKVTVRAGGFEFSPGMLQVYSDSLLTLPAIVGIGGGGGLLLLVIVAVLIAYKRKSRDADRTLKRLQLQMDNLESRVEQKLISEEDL

binding result [1]: binds
B1: mouse chimeric anti-mouse PlexinA1 antibody PXB693-mFc (antibody, mouse IgG2a, kappa)
heavy: QSVEESGGRLVTPGTPLTLTCTVSGFSLSSSAMTWVRQAPGKGLEWIGIINNSNIAAYASWTKGRFTISKTSTTVDLKITSPIIEDTATYFCARGDVGTTHYFNIWGPGTLVTVSSAKTTAPSVYPLAPVCGDTTGSSVTLGCLVKGYFPEPVTLTWNSGSLSSGVHTFPAVLQSDLYTLSSSVTVTSSTWPSQSITCNVAHPASSTKVDKKIEPRGPTIKPCPPCKCPAPNLRRGPKVFIFPPKIKDVLMISLSPIVTCVVVDVSEDDPDVQISWFVNNVEVHTAQTQTHREDYNSTLRVVSALPIQHQDWMSGKEFKCKVNNKDLPAPIERTISKPKGSVRAPQVYVLPPPEEEMTKKQVTLTCMVTDFMPEDIYVEWTNNGKTELNYKNTEPVLDSDGSYFMYSKLRVEKKNWVERNSYSCSVVHEGLHNHHTTKSFSRTPGK
light: AAVLTQTPSPVSAVVGGTVSISCQSSKSVYNNNWLSWFQQKPGQPPKLLIYGASTLASGVPSRFKGSGSGTQFTLAISDVQCDDAATYYCAGGYINSDNFAFGGGTEVVVKRADAAPTVSIFPPSSEQLTSGGASVVCFLNNFYPKDINVKWKIDGSERQNGVLNSWTDQDSKDSTYSMSSTLTLTKDEYERHNSYTCEATHKTSTSPIVKSFNRNEC
notes: Rabbit variable regions on mouse IgG2a heavy and mouse light chain constant regions; Agonist antibody

binding result [2]: binds
B2: anti-mouse PlexinA1 antibody PXB693 (antibody)
heavy: QSVEESGGRLVTPGTPLTLTCTVSGFSLSSSAMTWVRQAPGKGLEWIGIINNSNIAAYASWTKGRFTISKTSTTVDLKITSPIIEDTATYFCARGDVGTTHYFNIWGPGTLVTVSSGQPKAPSVFPLAPCCGDTPSSTVTLGCLVKGYLPEPVTVTWNSGTLTNGVRTFPSVRQSSGLYSLSSVVSVTSSSQPVTCNVAHPATNTKVDKTVAPSTCSKPMCPPPELLGGPSVFIFPPKPKDTLMISRTPEVTCVVVDVSQDDPEVQFTWYINNEQVRTARPPLREQQFNSTIRVVSTLPIAHQDWLRGKEFKCKVHNKALPAPIEKTISKARGQPLEPKVYTMGPPREELSSRSVSLTCMINGFYPSDISVEWEKNGKAEDNYKTTPTVLDSDGSYFLYSKLSVPTSEWQRGDVFTCSVMHEALHNHYTQKSISRSPGK
light: AAVLTQTPSPVSAVVGGTVSISCQSSKSVYNNNWLSWFQQKPGQPPKLLIYGASTLASGVPSRFKGSGSGTQFTLAISDVQCDDAATYYCAGGYINSDNFAFGGGTEVVVKGDPVAPTVLIFPPAADQVATGTVTIVCVANKYFPDVTVTWEVDGTTQTTGIENSKTPQNSADCTYNLSSTLTLTSTQYNSHKEYTCKVTQGTTSVVQSFNRGDC

binding result [2]: binds
B3: anti-mouse PlexinA1 antibody PXB361b (antibody)
heavy: QSLEESGGDLVKPEGSLTLSCTASGFTISSSYWICWVRQAPGKGLEWIACIYVGSGDGYTYYASWAKGRFTISKTSSTTVTLRMTSLTAADTATYFCARGGDGGVGGFDFFDPWGPGTLVTVSSGQPKAPSVFPLAPCCGDTPSSTVTLGCLVKGYLPEPVTVTWNSGTLTNGVRTFPSVRQSSGLYSLSSVVSVTSSSQPVTCNVAHPATNTKVDKTVAPSTCSKPMCPPPELLGGPSVFIFPPKPKDTLMISRTPEVTCVVVDVSQDDPEVQFTWYINNEQVRTARPPLREQQFNSTIRVVSTLPIAHQDWLRGKEFKCKVHNKALPAPIEKTISKARGQPLEPKVYTMGPPREELSSRSVSLTCMINGFYPSDISVEWEKNGKAEDNYKTTPTVLDSDGSYFLYSKLSVPTSEWQRGDVFTCSVMHEALHNHYTQKSISRSPGK
light: DVVLTQTPASVSEPVGGTVTIKCQATESINRNCAWYQQKPGQPPKLLIYRASTLASGVPSRFKGSGSGTEFTLTISDLECADAATYYCQCTDYGTYYVAFGGGTEVVVKGDPVAPTVLIFPPAADQVATGTVTIVCVANKYFPDVTVTWEVDGTTQTTGIENSKTPQNSADCTYNLSSTLTLTSTQYNSHKEYTCKVTQGTTSVVQSFNRGDC
notes: Antagonist antibody

binding result [1]: binds
B4: mouse chimeric human/mouse cross-reactive PlexinA1 antibody 359B2-2-3-6-mFc (antibody, mouse IgG2a, lambda, V domains shown)
VH: QVQLVQSGAEVKKPGASVKVSCKASGYTFTSYYMHWVRQAPGQGLEWMGIINPSGGSTSYAQKFQGRVTMTRDTSTSTVYMELSSLRSEDTAVYYCARAPGHYYYGMDVWGQGTTVTVSS
VL: SYELTQPPSVSVSPGQTASITCSGDKLEDKYASWYQLKPGHSPVLVIYQDSKRPSGIPERFSGSNSGNTATLTISGTQAMDEADYYCRAWDSNTGDVVFGGGTKLTVLR
notes: Mouse IgG2a heavy chain constant region; human light chain kept

binding result [1]: binds
B5: mouse chimeric anti-mouse PlexinA1 antibody PXB361b-mFc (antibody, mouse IgG1, kappa)
heavy: QSLEESGGDLVKPEGSLTLSCTASGFTISSSYWICWVRQAPGKGLEWIACIYVGSGDGYTYYASWAKGRFTISKTSSTTVTLRMTSLTAADTATYFCARGGDGGVGGFDFFDPWGPGTLVTVSSAKTTPPSVYPLAPGSAAQTNSMVTLGCLVKGYFPEPVTVTWNSGSLSSGVHTFPAVLQSDLYTLSSSVTVPSSTWPSETVTCNVAHPASSTKVDKKIVPRDCGCKPCICTVKEVSKVFIFPPKPKDVLTITLTPKVTCVVVDISKDDPEVQFSWFVDDVEVHTAQTQPREEQFNSTFRSVSELPIMHQDWLNGKEFKCRVNSAAFPAPIEKTISKTKGRPKAPQVYTIPPPKEQMAKDKVSLTCMITDFFPEDITVEWQWNGQPAENYKNTQPIMDTDGSYFVYSKLNVQKSNWEAGNTFTCSVLHEGLHNHHTEKSLSHSPGK
light: DVVLTQTPASVSEPVGGTVTIKCQATESINRNCAWYQQKPGQPPKLLIYRASTLASGVPSRFKGSGSGTEFTLTISDLECADAATYYCQCTDYGTYYVAFGGGTEVVVKRADAAPTVSIFPPSSEQLTSGGASVVCFLNNFYPKDINVKWKIDGSERQNGVLNSWTDQDSKDSTYSMSSTLTLTKDEYERHNSYTCEATHKTSTSPIVKSFNRNEC
notes: Rabbit variable regions on mouse IgG1 heavy and mouse light chain constant regions; Antagonist antibody

— patent US20200276302A1 (OSAKA UNIVERSITY, published 2020)
